Several values for one entry are separate records, joined by “and”; a condition that tells them apart may be missing. Identical values can stand only once. Values belong to the binder of their own block, whether it stands above or below them. Where no end group is shown, it is not given here.
Legend:
[1] = target: off-target bZIPs of XBP1-d1 (among the 32 C-terminally fluoresceinated human bZIPs tested) (human); assay: FRET or BRET; direct-binding FRET at 37°C; 10 nM fluorescein-labelled bZIP (donor), rhodamine-labelled design (acceptor) titrated 0 to 1 μM; 150 mM KCl, 50 mM potassium phosphate pH 7.4, 0.1% Tween-20, 0.1% BSA
[2] = target: T1, X-box binding protein 1 (XBP1) bZIP construct, C-terminally fluoresceinated (human, UniProt P17861 70-133, fluorescein at the C-terminus); assay: as above; conditions: both partners purified
T1 construct: source: previously described, donated by A.W. Reinke [18]
T1 sequence (looked up): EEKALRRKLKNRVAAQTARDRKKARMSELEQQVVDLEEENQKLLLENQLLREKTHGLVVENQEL

[3] = target: T2, MAF (Homo sapiens, UniProt O75444); assay: FRET or BRET; direct-binding FRET in 384-well plates; rhodamine-labelled design (acceptor) titrated 0 to 1 uM into 10 nM fluorescein-labelled bZIP (donor); 150 mM KCl, 50 mM potassium phosphate pH 7.4, 0.1% Tween-20, 0.1% BSA; 23 °C
T2 sequence (O75444 whole entry): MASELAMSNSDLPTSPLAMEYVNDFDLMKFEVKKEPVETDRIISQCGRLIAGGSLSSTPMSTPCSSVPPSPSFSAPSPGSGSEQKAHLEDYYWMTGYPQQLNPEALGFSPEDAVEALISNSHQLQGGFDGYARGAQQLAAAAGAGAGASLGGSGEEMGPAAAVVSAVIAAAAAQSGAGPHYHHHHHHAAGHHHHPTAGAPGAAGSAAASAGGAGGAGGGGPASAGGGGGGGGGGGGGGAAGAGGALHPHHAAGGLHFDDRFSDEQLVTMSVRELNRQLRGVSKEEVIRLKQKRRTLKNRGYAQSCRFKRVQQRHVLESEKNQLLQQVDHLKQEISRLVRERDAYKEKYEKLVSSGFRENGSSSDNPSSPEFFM

[4] = target: T3, ATF6B (Homo sapiens, UniProt Q99941); assay: as above
T3 sequence (Q99941 whole entry): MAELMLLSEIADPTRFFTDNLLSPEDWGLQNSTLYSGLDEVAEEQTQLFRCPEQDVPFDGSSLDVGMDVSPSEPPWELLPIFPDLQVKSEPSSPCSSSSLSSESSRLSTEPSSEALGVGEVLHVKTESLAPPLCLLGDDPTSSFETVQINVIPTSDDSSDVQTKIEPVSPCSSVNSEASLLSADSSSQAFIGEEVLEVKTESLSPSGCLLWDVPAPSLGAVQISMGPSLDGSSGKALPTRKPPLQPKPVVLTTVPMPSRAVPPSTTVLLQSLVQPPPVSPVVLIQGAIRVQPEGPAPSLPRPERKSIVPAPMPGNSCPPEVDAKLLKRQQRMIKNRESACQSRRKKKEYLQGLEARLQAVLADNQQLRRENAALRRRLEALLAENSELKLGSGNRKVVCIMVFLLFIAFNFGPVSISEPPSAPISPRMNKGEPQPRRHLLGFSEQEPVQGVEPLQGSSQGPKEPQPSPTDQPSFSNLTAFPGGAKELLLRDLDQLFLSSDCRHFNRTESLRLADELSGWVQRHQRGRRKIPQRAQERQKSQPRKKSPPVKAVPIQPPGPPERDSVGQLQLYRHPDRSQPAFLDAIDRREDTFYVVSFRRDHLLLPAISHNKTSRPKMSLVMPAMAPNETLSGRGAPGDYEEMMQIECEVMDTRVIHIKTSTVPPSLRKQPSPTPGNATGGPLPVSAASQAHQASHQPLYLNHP

[5] = target: MAFF (human) (UniProt Q9ULX9); assay: as above
MAFF (human), sequence (Q9ULX9 whole entry): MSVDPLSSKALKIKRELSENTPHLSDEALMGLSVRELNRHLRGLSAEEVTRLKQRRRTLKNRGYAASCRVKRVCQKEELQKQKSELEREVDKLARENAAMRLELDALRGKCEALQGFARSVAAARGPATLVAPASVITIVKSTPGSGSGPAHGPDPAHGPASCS

[6] = target: ATF4 (human) (UniProt P18848); assay: as above
ATF4 (human), sequence (P18848 whole entry): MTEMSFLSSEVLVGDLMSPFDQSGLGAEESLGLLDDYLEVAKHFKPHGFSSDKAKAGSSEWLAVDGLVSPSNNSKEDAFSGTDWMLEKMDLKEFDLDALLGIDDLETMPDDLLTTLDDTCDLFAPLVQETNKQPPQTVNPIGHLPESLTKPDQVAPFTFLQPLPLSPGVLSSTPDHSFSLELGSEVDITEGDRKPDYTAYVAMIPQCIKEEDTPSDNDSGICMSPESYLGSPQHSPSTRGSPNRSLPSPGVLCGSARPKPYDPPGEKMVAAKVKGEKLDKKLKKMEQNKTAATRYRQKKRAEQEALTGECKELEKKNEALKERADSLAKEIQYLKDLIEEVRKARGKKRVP

[7] = target: BATF2 (human) (UniProt Q8N1L9); assay: FRET or BRET; direct-binding FRET in 384-well plates; rhodamine-labelled design (acceptor) titrated 0 to 1 uM into 10 nM fluorescein-labelled bZIP (donor); 150 mM KCl, 50 mM potassium phosphate pH 7.4, 0.1% Tween-20, 0.1% BSA; 37 °C
[8] = target: BATF (human) (UniProt Q16520); assay: as above
BATF (human), sequence (Q16520 whole entry): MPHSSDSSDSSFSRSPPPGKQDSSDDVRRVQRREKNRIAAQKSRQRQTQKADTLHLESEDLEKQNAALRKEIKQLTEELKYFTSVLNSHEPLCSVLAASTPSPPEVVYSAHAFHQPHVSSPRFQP

[9] = target: T4, MAFB (Homo sapiens, UniProt Q9Y5Q3); assay: as above
T4 sequence (Q9Y5Q3 whole entry): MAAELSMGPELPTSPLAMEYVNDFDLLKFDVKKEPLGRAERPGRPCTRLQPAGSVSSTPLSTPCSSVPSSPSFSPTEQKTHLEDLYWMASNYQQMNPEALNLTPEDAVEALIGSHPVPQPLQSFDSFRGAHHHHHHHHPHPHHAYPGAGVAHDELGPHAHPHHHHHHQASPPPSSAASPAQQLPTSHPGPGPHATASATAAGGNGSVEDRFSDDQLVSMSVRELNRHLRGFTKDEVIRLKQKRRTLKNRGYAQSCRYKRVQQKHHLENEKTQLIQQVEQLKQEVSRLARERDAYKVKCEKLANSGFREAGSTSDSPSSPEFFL

[10] = target: MAFF (human) (UniProt Q9ULX9); assay: as above
[11] = target: T5, FOS (Homo sapiens, UniProt P01100); assay: as above
T5 sequence (P01100 whole entry): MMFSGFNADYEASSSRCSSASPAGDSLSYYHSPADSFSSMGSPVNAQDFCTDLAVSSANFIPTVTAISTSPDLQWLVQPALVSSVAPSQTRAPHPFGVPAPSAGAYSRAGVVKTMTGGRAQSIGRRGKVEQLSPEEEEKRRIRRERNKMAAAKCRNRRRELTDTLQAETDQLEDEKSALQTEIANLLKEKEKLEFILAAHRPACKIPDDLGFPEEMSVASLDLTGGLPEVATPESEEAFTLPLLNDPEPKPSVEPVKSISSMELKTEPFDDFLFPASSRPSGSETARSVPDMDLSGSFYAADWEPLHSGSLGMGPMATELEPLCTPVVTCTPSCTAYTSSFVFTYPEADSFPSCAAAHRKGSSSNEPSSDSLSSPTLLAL

[12] = target: T4, MAFB; assay: FRET or BRET; direct-binding FRET in 384-well plates; rhodamine-labelled design (acceptor) titrated 0 to 1 uM into 10 nM fluorescein-labelled bZIP (donor); 150 mM KCl, 50 mM potassium phosphate pH 7.4, 0.1% Tween-20, 0.1% BSA; 4 °C
[13] = target: ATF2 (human) (UniProt P15336); assay: as above
[14] = target: T2, MAF; assay: as above
[15] = target: T3, ATF6B; assay: as above
[16] = target: T6, JUN (Homo sapiens, UniProt P05412); assay: as above
T6 sequence (P05412 whole entry): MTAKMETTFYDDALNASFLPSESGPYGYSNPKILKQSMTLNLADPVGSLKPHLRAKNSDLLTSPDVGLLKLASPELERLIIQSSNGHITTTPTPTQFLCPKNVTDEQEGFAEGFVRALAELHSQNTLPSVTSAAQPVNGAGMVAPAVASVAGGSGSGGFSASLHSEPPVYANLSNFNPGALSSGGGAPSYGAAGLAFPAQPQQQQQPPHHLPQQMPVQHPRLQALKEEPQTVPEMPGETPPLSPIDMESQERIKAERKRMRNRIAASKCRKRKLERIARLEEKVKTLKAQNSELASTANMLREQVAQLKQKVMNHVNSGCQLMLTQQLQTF

[17] = target: ATF5 (human) (UniProt Q9Y2D1); assay: as above
ATF5 (human), sequence (Q9Y2D1 whole entry): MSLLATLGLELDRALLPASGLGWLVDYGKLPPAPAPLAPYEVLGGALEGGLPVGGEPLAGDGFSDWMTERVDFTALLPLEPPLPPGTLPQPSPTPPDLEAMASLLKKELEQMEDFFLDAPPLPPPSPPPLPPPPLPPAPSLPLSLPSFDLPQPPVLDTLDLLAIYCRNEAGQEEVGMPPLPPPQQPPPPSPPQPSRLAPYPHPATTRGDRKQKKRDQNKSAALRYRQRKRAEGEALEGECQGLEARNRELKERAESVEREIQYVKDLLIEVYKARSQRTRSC

[18] = target: MAFF (human) (UniProt Q9ULX9); assay: as above
[19] = target: X-box binding protein 1 (human) (UniProt P17861); assay: as above
X-box binding protein 1 (human), sequence (P17861 whole entry): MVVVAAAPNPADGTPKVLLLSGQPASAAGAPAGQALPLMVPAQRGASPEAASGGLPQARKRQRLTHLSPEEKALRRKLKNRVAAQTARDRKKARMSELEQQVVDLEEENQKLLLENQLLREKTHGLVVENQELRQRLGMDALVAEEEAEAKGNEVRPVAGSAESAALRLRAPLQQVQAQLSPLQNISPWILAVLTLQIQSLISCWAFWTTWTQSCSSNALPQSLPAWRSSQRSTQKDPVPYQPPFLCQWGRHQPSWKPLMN

[20] = target: T6, JUN; assay: FRET or BRET; direct-binding FRET in 384-well plates; rhodamine-labelled design (acceptor) titrated 0 to 1 uM into 10 nM fluorescein-labelled bZIP (donor); 150 mM KCl, 50 mM potassium phosphate pH 7.4, 0.1% Tween-20, 0.1% BSA; 23 °C
[21] = target: NFE2L3 (human) (UniProt Q9Y4A8); assay: FRET or BRET; direct-binding FRET in 384-well plates; rhodamine-labelled design (acceptor) titrated 0 to 1 uM into 10 nM fluorescein-labelled bZIP (donor); 150 mM KCl, 50 mM potassium phosphate pH 7.4, 0.1% Tween-20, 0.1% BSA; 37 °C
NFE2L3 (human), sequence (Q9Y4A8 whole entry): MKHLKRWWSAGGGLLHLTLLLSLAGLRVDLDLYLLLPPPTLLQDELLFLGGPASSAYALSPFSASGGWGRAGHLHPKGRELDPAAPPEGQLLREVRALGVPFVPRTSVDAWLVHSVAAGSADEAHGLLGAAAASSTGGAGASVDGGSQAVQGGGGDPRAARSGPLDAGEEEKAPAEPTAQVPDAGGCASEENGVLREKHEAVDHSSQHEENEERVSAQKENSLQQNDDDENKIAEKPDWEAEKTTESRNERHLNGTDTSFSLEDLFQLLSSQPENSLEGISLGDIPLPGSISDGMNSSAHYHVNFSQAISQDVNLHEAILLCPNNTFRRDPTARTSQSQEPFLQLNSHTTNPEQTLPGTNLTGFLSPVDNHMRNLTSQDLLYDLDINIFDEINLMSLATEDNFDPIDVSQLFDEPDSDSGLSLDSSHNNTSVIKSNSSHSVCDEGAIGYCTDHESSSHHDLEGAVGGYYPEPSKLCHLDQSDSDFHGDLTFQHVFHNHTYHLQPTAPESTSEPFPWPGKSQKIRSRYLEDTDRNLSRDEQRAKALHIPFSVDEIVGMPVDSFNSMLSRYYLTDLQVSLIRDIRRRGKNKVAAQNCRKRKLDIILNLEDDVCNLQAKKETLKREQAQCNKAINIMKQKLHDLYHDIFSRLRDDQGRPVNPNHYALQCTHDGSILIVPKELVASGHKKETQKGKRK

[22] = target: T3, ATF6B; assay: as above
[23] = target: NFE2 (human) (UniProt Q16621); assay: as above
[24] = target: Activating Transcription Factor (ATF) 3 (human) (UniProt P18847); assay: as above
Activating Transcription Factor (ATF) 3 (human), sequence (P18847 whole entry): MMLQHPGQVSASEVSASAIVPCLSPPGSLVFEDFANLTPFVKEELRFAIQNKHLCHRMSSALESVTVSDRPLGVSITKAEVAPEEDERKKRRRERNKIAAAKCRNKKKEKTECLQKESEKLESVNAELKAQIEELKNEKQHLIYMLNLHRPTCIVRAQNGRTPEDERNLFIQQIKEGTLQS

[25] = target: MAFG (Homo sapiens, UniProt O15525); assay: as above
[26] = target: X-box binding protein 1 (human) (UniProt P17861); assay: as above
[27] = target: CREB1 (human) (UniProt P16220); assay: as above
CREB1 (human), sequence (P16220 whole entry): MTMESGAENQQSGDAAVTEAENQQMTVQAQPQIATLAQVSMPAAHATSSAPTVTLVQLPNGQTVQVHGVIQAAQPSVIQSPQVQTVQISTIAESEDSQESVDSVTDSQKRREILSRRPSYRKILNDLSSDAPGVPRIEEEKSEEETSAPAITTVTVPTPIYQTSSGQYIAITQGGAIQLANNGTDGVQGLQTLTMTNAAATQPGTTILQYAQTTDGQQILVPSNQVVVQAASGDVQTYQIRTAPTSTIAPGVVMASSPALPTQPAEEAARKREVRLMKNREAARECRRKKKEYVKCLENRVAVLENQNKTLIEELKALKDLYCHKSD

[28] = target: DBP (human) (UniProt Q10586); assay: FRET or BRET; direct-binding FRET in 384-well plates; rhodamine-labelled design (acceptor) titrated 0 to 1 uM into 10 nM fluorescein-labelled bZIP (donor); 150 mM KCl, 50 mM potassium phosphate pH 7.4, 0.1% Tween-20, 0.1% BSA; 4 °C
DBP (human), sequence (Q10586 whole entry): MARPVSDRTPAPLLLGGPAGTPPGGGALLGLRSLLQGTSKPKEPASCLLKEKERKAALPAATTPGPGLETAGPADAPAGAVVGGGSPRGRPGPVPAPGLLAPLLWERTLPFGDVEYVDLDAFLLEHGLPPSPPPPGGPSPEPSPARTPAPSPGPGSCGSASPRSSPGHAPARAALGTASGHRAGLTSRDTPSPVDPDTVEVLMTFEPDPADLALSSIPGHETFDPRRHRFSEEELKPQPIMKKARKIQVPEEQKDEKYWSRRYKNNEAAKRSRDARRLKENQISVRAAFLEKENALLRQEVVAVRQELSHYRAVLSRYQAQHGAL

[29] = target: Activating Transcription Factor (ATF) 3 (human) (UniProt P18847); assay: as above
[30] = target: T5, FOS; assay: as above
[31] = target: T6, JUN; assay: FRET or BRET; direct-binding FRET in 384-well plates; rhodamine-labelled design (acceptor) titrated 0 to 1 uM into 10 nM fluorescein-labelled bZIP (donor); 150 mM KCl, 50 mM potassium phosphate pH 7.4, 0.1% Tween-20, 0.1% BSA; 37 °C
[32] = target: ATF4 (human) (UniProt P18848); assay: as above

Kd [1]: > 5000 nM
Kd [2]: 172 ± 65 nM
B1: XBP1-d1, rhodamine-labelled at the C-terminus (designed binder)
chain: GESKEYKKGSGSEREAQLENRVAHLKEKNQELKAQNLHLKEALSEAQNRNQELKNDAGC(Rhodamine Red C2‑maleimide)
notes: solubility linker after the His tag; added at the C-terminus for labelling; built from heptads of native and previously designed bZIPs; source: E. coli RP3098, purified (Ni-NTA under denaturing conditions, reverse-phase HPLC)

Kd [3]: > 5000 nM
Kd [4]: > 5000 nM
Kd [5]: > 5000 nM
Kd [6]: 8.5 nM
Kd [7]: > 5000 nM
Kd [8]: > 5000 nM
Kd [9]: > 5000 nM
Kd [10]: 116 nM
Kd [11]: > 5000 nM
Kd [12]: > 5000 nM
Kd [13]: > 5000 nM
Kd [14]: > 5000 nM
Kd [15]: > 5000 nM
Kd [16]: > 5000 nM
Kd [17]: 2.9 nM and 6.9 nM
Kd [18]: > 5000 nM
Kd [19]: > 5000 nM
B2: ATF5-d1 labeled at the N-terminus (designed binder)
chain: GESKEYKKGSGSC(Rhodamine Red C2‑maleimide)GKRIAYLRQRIAELRNENHVLESRIQRMEKEKDALQQDRDHLEYEL

Kd [20]: 1.1 nM and 1.2 nM and 1 nM
Kd [21]: > 5000 nM
Kd [22]: > 5000 nM
Kd [23]: > 5000 nM
Kd [24]: > 5000 nM
Kd [25]: > 5000 nM
Kd [10]: > 5000 nM
Kd [26]: > 5000 nM
Kd [11]: > 5000 nM
Kd [27]: > 5000 nM
Kd [28]: > 5000 nM
Kd [29]: > 5000 nM
Kd [30]: > 5000 nM
Kd [31]: 5.3 nM and 5.5 nM and 6.6 nM
Kd [32]: 557 nM and 529 nM and 543 nM
B3: JUN-d1 labeled at the C-terminus (designed binder)
chain: GESKEYKKGSGSSIAATLEKEEANLEKMNKKLAAEIESLLKEKDKLESVLNYHEGC
modifications: also: Cys56: Rhodamine Red C2-maleimide or fluorescein-5-maleimide, by assay
